Assay results reported in publication PMC3816987.

How the values were obtained:
[1] = biological target: GST fusion protein of Tulp1-N (1M-298Q) (mouse) (UniProt Q9Z273); assay: phage binding assay
[2] = biological target: GST-free tubby-N (tubby N-terminus, 1M-242P) (mouse) (UniProt P50586); assay: phage binding assay
Sequence of GST-free tubby-N (tubby N-terminus, 1M-242P) (mouse) (P50586 1-242): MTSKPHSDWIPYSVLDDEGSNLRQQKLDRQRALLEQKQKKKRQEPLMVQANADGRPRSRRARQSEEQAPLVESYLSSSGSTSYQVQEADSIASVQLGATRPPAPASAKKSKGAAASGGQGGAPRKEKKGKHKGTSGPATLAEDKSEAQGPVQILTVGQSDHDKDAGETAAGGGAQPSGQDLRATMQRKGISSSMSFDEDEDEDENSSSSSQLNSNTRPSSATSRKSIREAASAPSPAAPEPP

Sequence of GST fusion protein of Tulp1-N (1M-298Q) (mouse) (Q9Z273 1-298): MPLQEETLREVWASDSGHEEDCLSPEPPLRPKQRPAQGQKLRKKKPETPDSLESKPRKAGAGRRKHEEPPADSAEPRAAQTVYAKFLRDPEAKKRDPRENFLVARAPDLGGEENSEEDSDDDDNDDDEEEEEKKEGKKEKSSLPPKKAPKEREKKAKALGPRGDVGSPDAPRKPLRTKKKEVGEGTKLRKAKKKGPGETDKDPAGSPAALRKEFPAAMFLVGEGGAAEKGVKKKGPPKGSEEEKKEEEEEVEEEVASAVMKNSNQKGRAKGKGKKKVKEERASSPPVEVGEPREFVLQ
Sequence of Zinc finger E-box binding homeobox 1 (Zeb1) phage clone, 903E-1021E (Q64318 whole entry, the tested form may be a part): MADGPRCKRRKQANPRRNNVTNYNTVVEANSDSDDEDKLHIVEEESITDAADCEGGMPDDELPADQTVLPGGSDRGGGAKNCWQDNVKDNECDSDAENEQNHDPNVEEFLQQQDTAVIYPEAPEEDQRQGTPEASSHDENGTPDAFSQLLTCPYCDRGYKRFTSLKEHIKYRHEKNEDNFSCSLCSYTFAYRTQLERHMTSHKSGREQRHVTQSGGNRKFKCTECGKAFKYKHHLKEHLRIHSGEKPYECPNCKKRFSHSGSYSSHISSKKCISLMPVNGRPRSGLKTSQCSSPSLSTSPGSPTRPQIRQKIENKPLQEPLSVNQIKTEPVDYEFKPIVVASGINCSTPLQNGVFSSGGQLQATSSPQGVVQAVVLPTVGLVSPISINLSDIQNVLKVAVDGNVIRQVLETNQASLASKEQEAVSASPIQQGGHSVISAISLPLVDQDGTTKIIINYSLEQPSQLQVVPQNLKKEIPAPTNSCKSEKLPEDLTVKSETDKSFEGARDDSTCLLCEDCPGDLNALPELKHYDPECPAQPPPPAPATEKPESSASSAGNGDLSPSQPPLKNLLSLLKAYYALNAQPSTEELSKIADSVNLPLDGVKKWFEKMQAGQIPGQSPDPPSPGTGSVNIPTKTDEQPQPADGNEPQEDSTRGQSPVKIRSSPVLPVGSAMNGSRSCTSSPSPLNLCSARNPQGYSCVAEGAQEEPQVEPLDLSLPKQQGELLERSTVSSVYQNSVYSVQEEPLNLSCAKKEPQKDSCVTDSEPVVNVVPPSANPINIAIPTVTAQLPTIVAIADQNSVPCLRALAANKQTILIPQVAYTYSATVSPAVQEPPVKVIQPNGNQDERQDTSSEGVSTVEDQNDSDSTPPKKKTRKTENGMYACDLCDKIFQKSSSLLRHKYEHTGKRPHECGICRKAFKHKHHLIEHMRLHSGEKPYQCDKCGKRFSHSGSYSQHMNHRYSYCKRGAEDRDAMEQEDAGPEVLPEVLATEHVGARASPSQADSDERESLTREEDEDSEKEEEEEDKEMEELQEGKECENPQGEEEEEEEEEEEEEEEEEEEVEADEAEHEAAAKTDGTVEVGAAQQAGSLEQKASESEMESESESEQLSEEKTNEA
Sequence of Structure specific recognition protein 1 (Ssrp1) phage clone, 486E-619G (Q08943 2-708): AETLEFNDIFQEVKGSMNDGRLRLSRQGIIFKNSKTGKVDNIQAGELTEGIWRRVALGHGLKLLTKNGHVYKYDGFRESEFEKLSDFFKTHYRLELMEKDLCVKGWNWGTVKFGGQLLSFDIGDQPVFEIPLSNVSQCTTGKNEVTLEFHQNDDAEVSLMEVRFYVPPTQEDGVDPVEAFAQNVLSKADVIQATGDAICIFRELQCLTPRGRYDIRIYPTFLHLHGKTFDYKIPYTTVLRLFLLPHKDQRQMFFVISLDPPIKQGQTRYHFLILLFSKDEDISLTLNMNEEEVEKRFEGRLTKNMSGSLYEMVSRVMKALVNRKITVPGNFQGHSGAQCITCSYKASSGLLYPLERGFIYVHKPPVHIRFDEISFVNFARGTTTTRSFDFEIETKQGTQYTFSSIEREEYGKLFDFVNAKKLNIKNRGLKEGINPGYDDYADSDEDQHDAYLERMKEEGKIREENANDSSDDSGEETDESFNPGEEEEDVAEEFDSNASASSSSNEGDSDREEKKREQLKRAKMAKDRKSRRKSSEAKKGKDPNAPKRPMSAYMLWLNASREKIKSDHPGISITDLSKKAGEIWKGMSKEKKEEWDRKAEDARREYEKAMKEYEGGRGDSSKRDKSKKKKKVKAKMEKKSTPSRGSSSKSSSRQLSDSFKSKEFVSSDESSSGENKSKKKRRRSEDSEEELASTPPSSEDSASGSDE
Sequence of ATP-binding cassette F1 (Abcf1) phage clone, 57K-196G (Q6P542 whole entry, the tested form may be a part): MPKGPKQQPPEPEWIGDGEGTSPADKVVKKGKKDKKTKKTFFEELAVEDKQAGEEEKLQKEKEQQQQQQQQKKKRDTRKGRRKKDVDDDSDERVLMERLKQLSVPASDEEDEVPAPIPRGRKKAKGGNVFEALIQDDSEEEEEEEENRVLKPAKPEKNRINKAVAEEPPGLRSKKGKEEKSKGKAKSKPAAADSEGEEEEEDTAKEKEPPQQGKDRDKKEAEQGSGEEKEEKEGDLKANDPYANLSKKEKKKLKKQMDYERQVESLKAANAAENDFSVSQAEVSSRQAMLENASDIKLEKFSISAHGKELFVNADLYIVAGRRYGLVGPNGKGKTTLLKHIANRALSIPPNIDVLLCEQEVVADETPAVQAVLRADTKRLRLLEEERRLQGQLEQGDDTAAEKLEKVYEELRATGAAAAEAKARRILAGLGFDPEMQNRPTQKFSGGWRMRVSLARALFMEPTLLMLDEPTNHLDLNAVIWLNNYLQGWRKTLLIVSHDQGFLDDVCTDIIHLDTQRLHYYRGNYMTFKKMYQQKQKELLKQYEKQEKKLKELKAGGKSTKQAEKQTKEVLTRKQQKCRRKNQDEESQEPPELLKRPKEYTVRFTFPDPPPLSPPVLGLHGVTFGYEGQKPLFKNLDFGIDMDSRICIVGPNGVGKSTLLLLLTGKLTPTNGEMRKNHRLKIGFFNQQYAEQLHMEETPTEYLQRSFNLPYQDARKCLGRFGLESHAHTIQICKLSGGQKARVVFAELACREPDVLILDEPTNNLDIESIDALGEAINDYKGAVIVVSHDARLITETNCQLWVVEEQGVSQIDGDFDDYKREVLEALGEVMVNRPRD
Sequence of High mobility group (Hmg) box 2 (Hmgb2) phage clone, 89K-188E (P30681 whole entry, the tested form may be a part): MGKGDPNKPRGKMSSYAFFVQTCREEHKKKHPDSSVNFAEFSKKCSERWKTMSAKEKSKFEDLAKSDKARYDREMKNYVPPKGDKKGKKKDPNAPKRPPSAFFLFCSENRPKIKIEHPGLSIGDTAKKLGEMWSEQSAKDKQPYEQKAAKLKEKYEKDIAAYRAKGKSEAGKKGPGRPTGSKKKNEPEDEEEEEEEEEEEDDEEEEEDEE
Sequence of Hmg. nucleosomal binding domain 1 (Hmgn1) phage clone, 1M-49K (P18608 2-96): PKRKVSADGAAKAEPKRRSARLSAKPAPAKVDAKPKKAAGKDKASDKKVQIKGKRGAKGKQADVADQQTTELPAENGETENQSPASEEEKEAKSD
Sequence of Zinc finger protein 609 (Zfp609) phage clone, 1M-183E (domain or fragment) (Q8BZ47 whole entry, the tested form may be a part): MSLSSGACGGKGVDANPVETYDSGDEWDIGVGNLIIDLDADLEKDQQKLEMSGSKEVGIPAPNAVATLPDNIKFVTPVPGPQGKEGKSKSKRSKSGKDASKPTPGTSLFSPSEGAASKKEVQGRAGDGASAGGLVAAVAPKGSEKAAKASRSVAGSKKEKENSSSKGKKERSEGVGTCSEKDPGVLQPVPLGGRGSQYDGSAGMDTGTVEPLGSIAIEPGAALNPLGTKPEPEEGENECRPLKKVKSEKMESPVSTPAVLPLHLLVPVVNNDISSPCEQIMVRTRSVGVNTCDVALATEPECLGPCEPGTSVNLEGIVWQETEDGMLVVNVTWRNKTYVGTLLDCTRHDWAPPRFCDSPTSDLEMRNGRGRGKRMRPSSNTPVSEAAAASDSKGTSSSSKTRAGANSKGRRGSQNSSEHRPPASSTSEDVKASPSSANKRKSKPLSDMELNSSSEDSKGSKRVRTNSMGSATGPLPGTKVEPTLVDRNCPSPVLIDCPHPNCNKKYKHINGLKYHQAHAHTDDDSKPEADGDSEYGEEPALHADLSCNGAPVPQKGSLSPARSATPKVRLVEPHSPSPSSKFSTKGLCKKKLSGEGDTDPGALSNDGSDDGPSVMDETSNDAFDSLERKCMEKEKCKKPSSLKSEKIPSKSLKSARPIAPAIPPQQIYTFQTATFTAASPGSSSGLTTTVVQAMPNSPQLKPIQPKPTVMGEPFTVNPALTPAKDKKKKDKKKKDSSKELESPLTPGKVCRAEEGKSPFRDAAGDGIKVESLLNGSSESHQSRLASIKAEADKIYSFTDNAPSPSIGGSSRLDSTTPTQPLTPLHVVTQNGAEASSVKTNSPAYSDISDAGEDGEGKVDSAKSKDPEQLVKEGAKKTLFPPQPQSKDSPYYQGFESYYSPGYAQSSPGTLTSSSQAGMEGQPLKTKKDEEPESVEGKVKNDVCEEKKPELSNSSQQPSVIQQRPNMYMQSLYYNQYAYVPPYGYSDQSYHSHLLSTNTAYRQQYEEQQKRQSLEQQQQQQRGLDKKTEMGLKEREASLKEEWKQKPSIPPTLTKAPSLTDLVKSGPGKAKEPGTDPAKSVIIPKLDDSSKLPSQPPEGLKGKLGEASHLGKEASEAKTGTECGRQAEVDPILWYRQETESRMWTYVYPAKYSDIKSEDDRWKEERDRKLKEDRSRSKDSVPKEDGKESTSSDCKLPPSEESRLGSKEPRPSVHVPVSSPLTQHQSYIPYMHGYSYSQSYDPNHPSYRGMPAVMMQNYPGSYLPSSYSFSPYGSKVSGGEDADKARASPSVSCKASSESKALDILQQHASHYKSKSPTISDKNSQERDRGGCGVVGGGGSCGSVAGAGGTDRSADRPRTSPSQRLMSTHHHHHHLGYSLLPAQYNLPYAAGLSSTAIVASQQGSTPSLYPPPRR

Substance | binding specificity, clonal phage vs. control phage [1] | binding specificity, clonal phage vs. control phage [2]
ATP-binding cassette F1 (Abcf1) phage clone, 57K-196G (from UniProt Q6P542 57-196) (domain or fragment) | 33.4 X | 68.2 X
Armadillo repeat containing, X-linked 4 phage clone, 419S-587N (domain or fragment) |  | 40.1 X
High mobility group (Hmg) box 2 (Hmgb2) phage clone, 89K-188E (from UniProt P30681 89-188) (domain or fragment) | 55.2 X | 312 X
Hmg. box 2-like 1 (Hmgb2l1) phage clone, 170K-305G (domain or fragment) |  | 29.8 X
Hmg. nucleosomal binding domain 1 (Hmgn1) phage clone, 1M-49K (from UniProt P18608 1-49) (domain or fragment) |  | 61.4 X
Microtubule-associated protein 7 (Mtap7) phage clone, 23A-114R (from UniProt O88735 23-114) (domain or fragment) |  | 3.5 X
PC4 and SFRS1 interacting protein 1 (Psip1) phage clone, 152K-219K (from UniProt Q99JF8-1 152-219) (domain or fragment) | 24.1 X | 196 X
Structure specific recognition protein 1 (Ssrp1) phage clone, 486E-619G (from UniProt Q08943-1 486-619) (domain or fragment) | 39.7 X | 157 X
Zinc finger E-box binding homeobox 1 (Zeb1) phage clone, 903E-1021E (from UniProt Q64318 903-1021) (domain or fragment) | 56.7 X | 284 X
Zinc finger protein 609 (Zfp609) phage clone, 1M-183E (domain or fragment) |  | 53.2 X
